The labels stand for the following.
B1: Dam1 subunit of the Dam1 complex (natural protein, S. cerevisiae)
chain: MSEDKAKLGTTRSATEYRLSIGSAPTSRRSSMGESSSLMKFADQEGLTSSVGEYNENTIQQLLLPKIRELSDSIITLDSNFTRLNFIHESLADLNESLGSLLYGIMSNSWCVEFSQAPHDIQDDLIAIKQLKSLEDEKNNLVMELSNMERGIKRKKDEQGENDLAKASQNKQFNQPLFPSSQVRKYRSYDNRDKRKPSKIGNNLQVENEEDYEDDTSSEASFVLNPTNIGMSKSSQGHVTKTTRLNNNTNSKLRRKSILHTIRNSIASGADLPIENDNVVNLGDLHPNNRISLGSGAARVVNGPVTKNRNSMFSGRAERKPTESRHSVAKKTEKKINTRPPFR
notes: Dam1, S. cerevisiae, as a subunit of the reconstituted Dam1 complex; Stood in the assay inside the whole Dam1c; also called Dam1^Staple (residues 1-26); Dam1^C-ter; source: purified as part of Dam1c
B2: Spc34 subunit of the Dam1 complex (natural protein, S. cerevisiae)
chain: MGESLDRCIDDINRAVDSMSTLYFKPPGIFHNAILQGASNKASIRKDITRLIKDCNHDEAYLLFKVNPEKQSVSRRDGKEGVFDYVIKRDTDMKRNRRLGRPGEKPIIHVPKEVYLNKDRLDLNNKRRRTATTSGGGLNGFIFDTDLIGSSVISNSSSGTFKALSAVFKDDPQIQRLLYALENGSVLMEEESNNQRRKTIFVEDFPTDLILKVMAEVTDLWPLTEFKQDYDQLYHNYEQLSSKLRFIKKEVLLQDDRLKTMSQYHPSSSHDVAKIIRKEKDEIRRLEMEIANLQE
notes: Spc34, S. cerevisiae, as a subunit of the reconstituted Dam1 complex; Stood in the assay inside the whole Dam1c; source: purified as part of Dam1c
B3: Dad1 subunit of the Dam1 complex (natural protein, S. cerevisiae)
chain: MMASTSNDEEKLISTTDKYFIEQRNIVLQEINETMNSILNGLNGLNISLESSIAVGREFQSVSDLWKTLYDGLESLSDEAPIDEQPTLSQSKTK
notes: Dad1, S. cerevisiae, as a subunit of the reconstituted Dam1 complex; Stood in the assay inside the whole Dam1c; also called Dad1^A; source: purified as part of Dam1c
B4: Dad4 subunit of the Dam1 complex (natural protein, S. cerevisiae)
chain: MENPHEQVQANILSRIIGNVKRLNESVAILNQELVTINNRNKNLEIMGAICDNYHSSVQFNLEATNNKKPPL
notes: Dad4, S. cerevisiae, as a subunit of the reconstituted Dam1 complex; Stood in the assay inside the whole Dam1c; also called Dad4^B; source: purified as part of Dam1c
B5: Ask1 subunit of the Dam1 complex (natural protein, S. cerevisiae)
chain: MDSASKEETLEKLDQEITVNLQKIDSNLSFCFHKITQDIIPHVATYSEICERIMDSTEWLGTMFQETGLVNLQANAAAPVGNAPVKSLVSNNVGIFPTSAEEASRQSQTDNGPNEADSAVHVNRDVHSMFNNDSIDDFHTANITSTGQILKLPDSSDEDTGSEAVPSREQTDLTGEGHGGADDEQDESTIQRQSRKRKISLLLQQQYGSSSSMVPSPIVPNKMRKQLAHEEHINNDGDNDDENSNNIESSPLKQGHHHPKGQADDNNEGPDEEESTKEVPKPGTIIHFSTNR
notes: Ask1, S. cerevisiae, as a subunit of the reconstituted Dam1 complex; Stood in the assay inside the whole Dam1c; also called Ask1^B; source: purified as part of Dam1c
B6: Spc19 subunit of the Dam1 complex (natural protein, S. cerevisiae)
chain: MTDALEQSVLALEGTVSVLKDSVESLKCANEPSTNLASTMLQTKRVFRLVPEYDVERSKLDLIEEVEPLVRTLGDKLRKSMGRMQRELDTLQQTYELNDLRLKKNISMDDDDALNSPDMGQEYEGRDADDVVMMASSTNEELEELKKLKEKKKQLENKLEILKQK
notes: Spc19, S. cerevisiae, as a subunit of the reconstituted Dam1 complex; Stood in the assay inside the whole Dam1c; source: purified as part of Dam1c

For assay [1], the target named is Ndc80 complex (heterotetramer of Ndc80, Nuf2, Spc24 and Spc25, S. cerevisiae), wild type (S. cerevisiae) (UniProt P40460).
Assay [2] has as its target Dam1 complex (ten-subunit, S. cerevisiae), wild type, P53267;Q12248;P35734;P69851;P36131;Q03954. Description: optical trap force-rupture assay. Conditions: Ndc80c + Dam1c on microtubules; N=154 (parent N=150); parent: 10.4.
The target of assay [3] is microtubules (α/β-tubulin) (UniProt P02554). In words: optical trap force-rupture assay. Conditions: Ndc80c alone (no Dam1c) on microtubules; N=81 (parent N=119); parent: 5.4.
In assay [4] the target is Dam1 complex (ten-subunit, S. cerevisiae), wild type (S. cerevisiae) (UniProt P53267). In words: cryo-EM structure; outer kinetochore Dam1c:Ndc80c:microtubule complexes assembled on cryo-EM grids by step-wise addition of taxol-stabilized microtubules, Ndc80c, and Dam1c.
In assay [5] the target is microtubules (α/β-tubulin) (UniProt P02554). In words: optical trap force-rupture assay; rupture of outer kinetochore - microtubule attachments; each event is the maximum trap force before rupturing; medians; Ndc80c alone.
The target of assay [6] is T1, Ndc80 complex (heterotetramer of Ndc80, Nuf2, Spc24 and Spc25, S. cerevisiae), wild type (S. cerevisiae, UniProt P40460 1-691; P33895 1-451; Q04477 1-213; P40014 1-221).
T1 construct: Ndc80 subunit of the S. cerevisiae Ndc80 complex; Nuf2 subunit of the S. cerevisiae Ndc80 complex; Spc24 subunit of the S. cerevisiae Ndc80 complex (no cryo-EM density visible); Spc25 subunit of the S. cerevisiae Ndc80 complex (no cryo-EM density visible); also called Ndc80c^CH; Ndc80^CC:Nuf2^CC; source: purified; copies: + + +
In words: cryo-EM structure; outer kinetochore Dam1c:Ndc80c:microtubule complexes assembled on cryo-EM grids by step-wise addition of taxol-stabilized microtubules, Ndc80c, and Dam1c. Conditions: both partners purified.

The target of assay [7] is B1. The description is as above. Conditions: both partners purified.
The target of assay [8] is B2. The assay is described as above. Conditions: both partners purified.
The target in assay [9] is T2, Ndc80 subunit of the Ndc80 complex (S. cerevisiae, UniProt P40460 1-691).
T2 construct: Ndc80, S. cerevisiae, as a subunit of the reconstituted Ndc80 complex; Stood in the assay inside the whole Ndc80c; also called Ndc80^CH; Ndc80^CC; source: purified as part of Ndc80c
The assay is described as above. Conditions: both partners purified.

T1 sequence (P40460 whole entry, chain 1 of 4): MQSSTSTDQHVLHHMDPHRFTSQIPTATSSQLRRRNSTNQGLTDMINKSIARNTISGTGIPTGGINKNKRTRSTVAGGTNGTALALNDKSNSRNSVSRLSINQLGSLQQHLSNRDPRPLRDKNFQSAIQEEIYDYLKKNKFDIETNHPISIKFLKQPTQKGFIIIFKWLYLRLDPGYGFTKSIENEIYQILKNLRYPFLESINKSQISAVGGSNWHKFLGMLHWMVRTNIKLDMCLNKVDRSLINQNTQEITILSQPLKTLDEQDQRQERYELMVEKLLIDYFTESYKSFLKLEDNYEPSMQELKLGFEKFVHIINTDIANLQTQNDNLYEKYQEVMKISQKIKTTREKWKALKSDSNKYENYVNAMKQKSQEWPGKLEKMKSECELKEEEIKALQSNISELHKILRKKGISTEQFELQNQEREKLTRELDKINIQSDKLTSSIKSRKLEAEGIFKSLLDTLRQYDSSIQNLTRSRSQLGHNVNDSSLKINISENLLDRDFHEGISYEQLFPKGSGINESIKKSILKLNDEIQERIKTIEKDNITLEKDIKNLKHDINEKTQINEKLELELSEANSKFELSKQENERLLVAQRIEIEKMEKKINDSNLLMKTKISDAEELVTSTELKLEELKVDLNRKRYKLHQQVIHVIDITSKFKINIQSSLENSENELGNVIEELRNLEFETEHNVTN
T1 sequence (P33895 whole entry, chain 2 of 4): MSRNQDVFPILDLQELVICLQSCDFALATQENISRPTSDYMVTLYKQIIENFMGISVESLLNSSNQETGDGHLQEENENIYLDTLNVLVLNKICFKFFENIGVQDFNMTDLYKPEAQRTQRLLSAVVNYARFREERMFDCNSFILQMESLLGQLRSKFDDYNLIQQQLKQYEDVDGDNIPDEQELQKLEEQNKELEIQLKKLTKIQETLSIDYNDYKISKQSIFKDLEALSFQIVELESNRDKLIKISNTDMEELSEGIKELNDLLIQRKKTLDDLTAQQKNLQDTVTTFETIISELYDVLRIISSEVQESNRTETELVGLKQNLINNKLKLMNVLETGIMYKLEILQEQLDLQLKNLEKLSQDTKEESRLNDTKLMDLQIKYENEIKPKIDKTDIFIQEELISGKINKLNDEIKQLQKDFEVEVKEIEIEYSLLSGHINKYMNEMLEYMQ
T1 sequence (Q04477 whole entry, chain 3 of 4): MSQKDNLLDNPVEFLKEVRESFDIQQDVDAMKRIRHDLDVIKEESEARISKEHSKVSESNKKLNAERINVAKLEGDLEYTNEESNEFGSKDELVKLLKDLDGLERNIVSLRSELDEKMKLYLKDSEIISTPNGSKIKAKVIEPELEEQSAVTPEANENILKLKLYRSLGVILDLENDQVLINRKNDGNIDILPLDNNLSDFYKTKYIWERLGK
T1 sequence (P40014 whole entry, chain 4 of 4): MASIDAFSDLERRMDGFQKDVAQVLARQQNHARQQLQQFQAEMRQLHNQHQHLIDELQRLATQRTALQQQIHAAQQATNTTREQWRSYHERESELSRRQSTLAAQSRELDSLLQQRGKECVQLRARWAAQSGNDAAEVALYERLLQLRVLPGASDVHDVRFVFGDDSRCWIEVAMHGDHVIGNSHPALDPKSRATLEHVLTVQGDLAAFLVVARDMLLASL
Ndc80 complex (heterotetramer of Ndc80, Nuf2, Spc24 and Spc25, S. cerevisiae), wild type (S. cerevisiae), sequence (P40460 whole entry, chain 1 of 4): as the sequence (P40460 whole entry, chain 1 of 4) above
Ndc80 complex (heterotetramer of Ndc80, Nuf2, Spc24 and Spc25, S. cerevisiae), wild type (S. cerevisiae), sequence (P33895 whole entry, chain 2 of 4, further chain): as the sequence (P33895 whole entry, chain 2 of 4) above
Ndc80 complex (heterotetramer of Ndc80, Nuf2, Spc24 and Spc25, S. cerevisiae), wild type (S. cerevisiae), sequence (Q04477 whole entry, chain 3 of 4, further chain): as the sequence (Q04477 whole entry, chain 3 of 4) above
Ndc80 complex (heterotetramer of Ndc80, Nuf2, Spc24 and Spc25, S. cerevisiae), wild type (S. cerevisiae), sequence (P40014 whole entry, chain 4 of 4, further chain): as the sequence (P40014 whole entry, chain 4 of 4) above
T2 sequence (P40460 whole entry, one chain of several): as the sequence (P40460 whole entry, chain 1 of 4) above

On to “Dam1 complex with the Dam1 C-terminal mutant (I258/L259/I262 mutated) (from UniProt P53267 1-343; Q12248 1-94; P35734 1-292; P69851 1-72; P36131 1-295; Q03954 1-165)”, for which the median rupture force of Ndc80c - microtubule attachments in the presence of the Dam1 C-ter mutant Dam1c (optical trap force-rupture assay) in assay [1] was 5.5 pN.

As for “Ndc80 complex (heterotetramer of Ndc80, Nuf2, Spc24 and Spc25, S. cerevisiae), wild type (from UniProt P40460;P33895;Q04477;P40014) E568R; V590W; L594E; E597R”, the other: median rupture force was found to be 8.9 pN in assay [2] and 4.5 pN in [3]. Molecule “Dam1 complex (ten-subunit, S. cerevisiae), wild type (from UniProt P53267 1-343; Q12248 1-94; P35734 1-292; P69851 1-72; P36131 1-295; Q03954 1-165)” came in with a stoichiometry N in assay [4] of 16. Besides, in assay [1], the median rupture force of Ndc80c - microtubule attachments in the presence of Dam1c (optical trap force-rupture assay) amounted to 10.4 pN. In assay [5], “Ndc80 complex (heterotetramer of Ndc80, Nuf2, Spc24 and Spc25, S. cerevisiae), wild type (from UniProt P40460 1-691; P33895 1-451; Q04477 1-213; P40014 1-221)” had a median rupture force of 5.4 pN. With B1, the binding result in assay [6] was “binds”. Still for that read-out and setting: to B2 belongs “binds”. Turning to B3, in assay [7], the binding result is “binds”. On the same count and under the same terms, to B4 belongs “binds”; to B5, “binds”. For the molecule B6, the binding result in assay [8] and in assay [9] was “binds” in each case.

By stoichiometry N is commonly meant a count of units in the complex or per binding partner.

Values taken from publication PMC7615550, “Structural mechanism of outer kinetochore Dam1:Ndc80 complex assembly on microtubules” (Science (New York, N.Y.), 2023).
